Measurements published in patent US20100233154A1, “TARGETED BINDING AGENTS DIRECTED TO HEPARANASE AND USES THEREOF 463” (MedImmune Limited, priority 2008, published 2010).

What was measured:
[1] = biological target: T1, recombinant human heparanase (Homo sapiens, UniProt Q9Y251); experiment: ELISA binding to directly coated recombinant human heparanase
T1 construct: Heparanase 8 and 50 kDa sub-units were cloned into pacGP67 as Sma 1-EcoR1 fragments; made in house; host or cells: Hi5 insect cells, baculovirus (pFastBac Dual)
T1 sequence (Q9Y251 158-543 limits assumed): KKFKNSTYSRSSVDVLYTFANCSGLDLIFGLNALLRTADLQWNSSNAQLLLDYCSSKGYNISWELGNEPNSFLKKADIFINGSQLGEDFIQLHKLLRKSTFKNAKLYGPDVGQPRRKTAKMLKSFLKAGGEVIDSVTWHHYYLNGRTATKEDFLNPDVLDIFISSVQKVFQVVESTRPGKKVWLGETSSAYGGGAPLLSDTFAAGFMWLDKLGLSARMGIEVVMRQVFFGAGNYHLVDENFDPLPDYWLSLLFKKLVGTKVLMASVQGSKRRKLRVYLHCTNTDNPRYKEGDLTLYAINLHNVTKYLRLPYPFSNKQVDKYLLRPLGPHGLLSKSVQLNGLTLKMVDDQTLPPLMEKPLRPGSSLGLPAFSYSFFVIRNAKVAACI
T1 sequence (Q9Y251 36-109 limits assumed): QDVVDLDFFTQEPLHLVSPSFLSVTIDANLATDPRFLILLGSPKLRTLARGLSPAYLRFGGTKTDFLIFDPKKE
Experimental: (§1) Titres of antibodies from Campaigns 1 and 2 were determined in an ELISA. Costar 3368 medium binding plates were coated directly with recombinant human heparanase or plates were coated with Rabbit anti-heparanase antibody (Raybiotech, Cat. IP-14-155) to capture recombinant heparanase. Directly coated heparanase was detected in three separate plates by mouse (InSight Cat. INS-26-1-0000), goat (Santa Cruz, Cat. sc26136) or rabbit (Raybiotech, Cat. IP-14-155) anti-heparanase antibodies, and quantified using appropriate secondary antibodies. Antibody captured heparanase was detected using mouse anti-heparanase (Insight Cat. INS-26-1-0000). At the end of the immunisation program, fusions were performed using mouse myeloma cells and lymphocytes isolated from the spleens and lymph nodes of the immunised mice by means of electroporation, as described in Example 2.
(§2) Initial screening to detect antibodies binding to human heparanase in both direct coating and antibody capture ELISAs as described above identified 800 hybridomas for further testing; 535 IgG2 from Campaign 1 and 2 and 265 IgG4 from Campaign 2. Enzyme inhibition assays and cross species binding to cynomolgus and murine heparanase, in an antibody capture ELISA, identifed 12 antibodies that were taken forward for sub-cloning to provide purified antibodies for further analysis. Subsequently, confirmation of activity against human heparanase (FIGS. 3 and 4) and inhibition of recombinant cynomolgus and murine heparanase activity in the HS-cryptate degradation assay (FIG. 5a-c), together with sequence analysis, identified 8 antibodies that are described in the table below.

[2] = biological target: T2, recombinant heparanase captured with rabbit anti-heparanase antibody (Homo sapiens, UniProt Q9Y251); experiment: ELISA binding to antibody-captured heparanase; details: antibody capture
T2 construct: Heparanase 8 and 50 kDa sub-units were cloned into pacGP67 as Sma 1-EcoR1 fragments; made in house; host or cells: Hi5 insect cells, baculovirus (pFastBac Dual)
T2 sequence (Q9Y251 158-543 limits assumed): T1 sequence (Q9Y251 158-543 limits assumed)
T2 sequence (Q9Y251 36-109 limits assumed): T1 sequence (Q9Y251 36-109 limits assumed)
Experimental: as §1, §2

[3] = biological target: T3, murine heparanase (Mus musculus, UniProt Q6YGZ1); experiment: Cross species capture ELISA, murine heparanase; format: binding; details: min 0.06, max 0.9 OD units
T3 construct: made in house; host or cells: Hek293 cells (conditioned medium), inferred for the ELISA
T3 sequence (Q6YGZ1 28-535): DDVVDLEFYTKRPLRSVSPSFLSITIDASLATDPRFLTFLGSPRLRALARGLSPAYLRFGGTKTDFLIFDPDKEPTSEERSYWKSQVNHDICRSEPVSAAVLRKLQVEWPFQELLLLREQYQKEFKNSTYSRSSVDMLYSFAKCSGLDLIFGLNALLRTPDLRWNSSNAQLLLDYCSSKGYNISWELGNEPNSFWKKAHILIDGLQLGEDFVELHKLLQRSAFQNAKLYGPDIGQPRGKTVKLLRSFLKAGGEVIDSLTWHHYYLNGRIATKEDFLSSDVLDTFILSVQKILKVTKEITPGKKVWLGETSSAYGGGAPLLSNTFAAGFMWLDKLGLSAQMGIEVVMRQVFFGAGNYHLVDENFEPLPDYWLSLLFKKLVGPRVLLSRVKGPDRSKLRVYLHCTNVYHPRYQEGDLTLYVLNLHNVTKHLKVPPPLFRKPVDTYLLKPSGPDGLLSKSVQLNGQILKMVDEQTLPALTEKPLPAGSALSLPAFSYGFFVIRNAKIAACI
Experimental: Initially, cross species binding to human, murine and cynomolgus heparanase was determined in an ELISA assay in which heparanase was captured onto plates using a rabbit anti-heparanase antibody (Raybiotech, Cat. IP-14-155). Exhaustive supernatants were added to the plates at a final dilution of 1:5 and bound antibody detected with a rabbit anti-human IgG Fc.

[4] = tested on: HT1080 human fibrosarcoma cells; experiment: FACS binding to cell surface heparanase, HT1080; format: cell-based; details: 5 or 10 μg per ml, 2 hrs at 37° C.
Experimental: (§3) Although heparanase is found as a secreted protein, a proportion of heparanase is found in conjunction with cell surface heparan sulfate. The ability of anti-human heparanase antibodies to bind to cell surface heparanase was tested in a FACS assay. HT1080 human fibrosarcoma cells, HCT116 human colorectal tumour cells and B16F10 AP3 murine melanoma cells were each seeded into 6-well plates and cultured for 48 hrs prior to the addition of anti-heparanase antibody 10E9.1 or control IgG2 antibody (Sigma Cat. No. 1504-1MG). Antibodies were added to the cells to a final concentration of 5 or 10 μg per ml and incubated with the cells for 2 hrs at 37° C. The cells were then washed with phosphate buffered saline (PBS) and harvested by incubation with trypsin. The cells were pelleted by centrifugation and resuspended in 0.5 ml PBS, 0.1% BSA containing 1/200 dilution of AlexaFluor 488 anti-human IgG. The cells were incubated for 1 hr at room temperature, washed with PBS/BSA, resuspended in PBS and analysed by FACS. […] The differences likely reflect a lower affinity for murine heparanase in addition to any differences in absolute heparanase expression.

[5] = tested on: B16F10 AP3 murine melanoma cells; experiment: FACS binding to cell surface heparanase, B16F10 AP3; format: cell-based; details: 5 or 10 μg per ml, 2 hrs at 37° C.
Experimental: as §3

B1: 10E9.1: fully human anti-heparanase monoclonal antibody, G2κ; VH SEQ ID NO 2, VL SEQ ID NO 4; ATCC PTA-9489 (antibody, listed as Homo Sapiens, V domains shown)
VH: QVQLVQSGAEVKKPGASVKVSCKVSGYSLTELSIHWVRQAPGKGLEWMGGFDPEDGEIIFAQKFQGRVTLTEDISLDTAYMEVSSLRSEDTAVYYCATEGHDSGDYVGYYYYGLDVWGQGTTVTVSS
VL: DIQMTQSPSSLSASVGDRVTITCRASQDIRNFLAWYQQKPGKLPKLLIYAASTLQSGVPSRFSGSGSGTDFTLTISSLQPEDVASYYCQSHNSVPFTFGPGTKVDIR
notes: fully human anti-heparanase monoclonal antibody, G2κ; ATCC PTA-9489
B1 was tested, and the “Binding to direct coated heparanase” value [1] was 0.2 OD units, the “Binding to captured heparanase” value [2] was 0.87 OD units and the “Binding to heparanase Mouse” value [3] was 0.49 OD units. For the same molecule, the “Binding to cells by FACS” value [4] was “bind extensively” and the “Binding to cell surface by FACS” value [5] was “bind to the cell surface of B16F10 AP3 murine melanoma cells”.
